# Test results: patent publication US20220073643A1
# Target: Claudin18.2-His protein (human)
# Experiment: indirect ELISA on coated Claudin18.2-His
row,Binder,EC50
1,"424G9G3 (antibody, V domains shown) VH: QVQLQQSGPEVVRPGASVKMSCKGSGYTLNNFWMHWVKQRPGQGLEWIGMIDTSNGETRLNQIFKDKATLTVDKSSKTAYMQLSSLTSEDSAVYYCAPYGNFADWGQGTTLTVSS VL: DVLLTQTPLSLPVSLGDQASISCRSSQSIVYGNGNTYLEWYLQKPGQSPKLLIYKVSSRFSGVPDRFSGSGSGTDFTLKITKVEAEDLGVYYCFQGSHVPFTFGSGTKLEIK",0.03 µg/mL
2,"425B3D5 (antibody, V domains shown) VH: DVQLVESGGGLVQPGGSRKLSCAASGFTFSGFGMHWIRQTPEKGLEWVAYISSGSRPIYYADTVQGRFTISRDNPKNTLFLQMTSLRSEDTAMYFCARFYYGNSFDHWGQGTLVTVSS VL: DIVMTQSPSFLTVTAGEKVTMSCKSSQSLLNSGNQKNYLTWYQQKPGQPPKLLIYWASTRESGVPDRFTGSGSGTDFTLTISSVQAEDLALYYCQNAYSFPLTFGAGTKLELK",0.0037 µg/mL
3,"425C6D3 (antibody, V domains shown) VH: DVQLVESGGGLVQPGGSRKLSCAASGFTFSGFGMHWIRQTPEKGLEWVAYISSGSRPIYYADTVQGRFTISRDNPKNTLFLQMTSLRSEDTAMYFCARFYYGNSFDHWGQGTLVTVSS VL: DIVMTQSPSFLTVTAGEKVTMSCKSSQSLLNSGNQKNYLTWYQQKPGQPPKLLIYWASTRESGVPDRFTGSGSGTDFTLTISSVQAEDLALYYCQNAYSFPLTFGAGTKLELK",0.0114 µg/mL
4,"426D9F6 (antibody, V domains shown) VH: DVQLVESGGGLVQPGGSRKLSCAASGFTFSGFGMHWIRQTPEKGLEWVAYISSGSRPIYYADTVKGRFTISRDNPKNTLFLQMTSLRSEDTAMYFCARFYYGNSFDHWGQGTLVTVSA VL: DIVMTQSPSFLTVTAGEKVTMSCKSSQSLLNSGNQRNYLTWYQQKPGQPPKLLIYWASTRESGVPDRFTGSGSGTDFTLTVSSVQAEDLALYYCQNAYSFPLTFGAGTKLELK",0.0112 µg/mL
5,"426H6E11 (antibody, V domains shown) VH: DVQLVESGGGLVQPGGSRKLSCAASGFTFSGFGMHWIRQTPEKGLEWVAYISSGSRPIYYADTVQGRFTISRDNPKNTLFLQMTSLRSEDTAMYFCARFYYGNSFDHWGQGTLVTVSS VL: DIVMTQFPSFLTVTAGEKVTMSCKSSQTLLNSGNQKNYLTWYQQKPGQPPKLLIYWASTRESGVPDRFTGSGSGTDFTLTISSVQAEDLALYYCQNAYSFPLTFGAGTNLELK",0.0224 µg/mL
6,"430B3F1 (antibody, V domains shown) VH: DVQLVESGGGLVQPGGSRKLSCAASGFTFSGFGMHWIRQTPEKGLEWVAYISSGGRPIYYADTVQGRFTISRDNPKNTLFLQMTSLRSEDTAMYFCARFYYGNSFDHWGQGTLVTISS VL: DIVMTQSPSFLTVTAGEKVTMSCKSSQSLLNSGNQKNYLTWYQQKPGQPPKLLIYWASTRESGVPDRFTGSGSGTDFTLTISSVQAEDLALYYCQNAYSFPLTFGAGTKLELK",0.0154 µg/mL
7,"35E8D2 (antibody, V domains shown) VH: QIQLVQSGPELKKPGETVRISCKASGYTFTTAGMQWVQKMPGKGLKWIGWINTHSRVPNFAEDFKGRFAFSLETSARIAYLQISNIKNEDMATYFCARLGKGNTMDFWGQGTSVTVSS VL: DIVMTQSPSSLTVTVGEKVTMSCKSSQSLLNSGNQKNYLTWYQQKPGQPPKLLIYWASTRESGVPDRFTGSGSETDFTLTISSLQAEDLAVYYCQNSYSFPLTFGGGTNLEIK",0.00319 µg/mL
8,"207F8G5 (antibody, V domains shown) VH: QAYLQQSGAELVRSGASVKMSCKASGFTFTSYNIHWVKQTPGQGLEWIGYISPGNGGSNYNLKFKDKATLTSATSSSTAYMQISSLTSEDSAVYFCATGRGFAYWGQGTLVTVSA VL: DIVMTQSPSSLTVTPGEKVTMSCKSSQSLFNSGNQKNYLIWYQQKPGQPPKLLIYRASTRDSGVPDRFTGSGSGTDFTLTISNVQAEDLAIYYCQNDYSYPLTFGAGTKLELK",0.0335 µg/mL
9,"61H12G10 (antibody, V domains shown) VH: QVQLKESGPGLVAPSQSLSITCTVSGFSLTDYGVSWIRQPPGKGLEWLGVIWGGGSTYYNSALKSRLIISKDNSKSQVFLKMNSLQTDDTAIYYCAKHHYGNACDYWGQGTTLTVSS VL: DIVMTQSPSSLTVTAGEKVTMSCKSSQSLFNSGNLKNYLTWYQQKPGQPPKLLICWASTRESGVPDRFTGSGSGTEFTLTISSVQAEDLAVYYCQNDYSYPFTFGSGTKLEIK",0.0351 µg/mL
10,"69D5C1 (antibody, V domains shown) VH: EVKLVESGGGLVQPGGSRKLSCAASGFTFRDYGMAWVRQAPGKGPEWITFISNLAYSIYYADTVTGRFTISTENAKNTLYLEMSSLRSEDTAMYYCAVIYYGNSFAYWGQGTLVTV VL: DIVLTQSPSSLTVTAGEKVTMSCKSSQSLLNSGNLRNYLTWYQQKPGQPPKLLIYWASTRESGVPDRFTGSGSGTDFTLTISSLQAEDLAIYYCQNGYSYPFTFGSGTKLEIK",0.00266 µg/mL
11,"217D9G2 (antibody, V domains shown) VH: QAYLQQSGAELVRSGASVKMSCKASGFTFTSYNIHWVKQTPGQGLEWIGYISPGNGGSNYNLNFKDKATLTAATSSTTAYMQISSLTSEDSAVYFCATGRGFAYWGQGTLVTVSA VL: DIVMTQSPSSLTVTPGEKVTMSCRSSQSLFNSGNQKNYLIWYQQKPGQPPKLLIYRASTRDSGVPDRFTGSGSGTDFTLTISNVQAEDLAVYYCQNDYSYPLTFGAGTKLELK",0.028 µg/mL
12,"222B6G5 (antibody, V domains shown) VH: QTYLQQSGAELVRSGASVKMSCKASGYTFTSYNIHWVKQTPGQGLEWIGYISPGNGGTYYNLKFKDKATLTTATSSSTAYMQISSLTSEDSAVYFCATGRGFAYWGQGTLVTVSA VL: DIVMTQSPSSLTVTPGEKVTMSCKSSQSLFNSGNQKNYLIWYQQKPGQPPKLLIYRASTRDSGVPDRFTGSGSGTDFTLTISNVQAEDLAVYYCQNDYSYPLTFGAGTKLELK",0.0201 µg/mL
13,"226A4B5 (antibody, V domains shown) VH: QAYLQQSGAELVRSGASVRMSCKASGFTFTSYNIHWVKQTPGQGLEWIGYIYPGSGGSNYNQKFMGKATLTADTSSSTVYMQISSLTSEDSAVYFCATGRGFAYWGQGTLVTVSA VL: DIVMTQSPSSLTVTAGEKVTMSCKSSQSLFNSGNQKNYLTWYQQKPGQPPKLLIYRASTRESGVPDRFTGSGSGTDFTLTISSVQAEDLAVYYCQNDYSYPLTFGTGTKLELK",0.00813 µg/mL
14,"182D10F1 (antibody, V domains shown) VH: QAYLQQSGAELVRSGASVKMSCKASGYTFSSYNMHWVKQTPGQGLEWIGYIYPGNGGTNYNQKFKGKATLTADTSSSTAYMQISSLTSEDSAVYFCLTGRGFTYWGQGTLVTVSA VL: DIVMTQSPSSLTVTAGEKVTMNCKSSQSLFNSGNQKNYLTWYQQKPGQPPKLLIYRASTRESGVPDRFTGSGSGTDFTLTISSVQAEDLAVYYCQNDYSYPLTFGVGTKLELK",0.0236 µg/mL
15,"231C11E9 (antibody, V domains shown) VH: EVMLVESGGGLVKPGGSLKLSCAASGFTFNNYVMCWVRQTPEKRLEWVATISSGNFYTYYPDSVKGRFTISRDNAKNTLYLQMSSLRSEDTAIYYCASLGRGNALDNWGQGTSVTVSS VL: DIVMTQSPASLTVTAKEKVTMSCRSSQSLLNSGNQKNYLTWYQQKPGQPPKLLIYWASTRESGVPDRFTGSGSGTDFTLTISSVQAEDLAVYYCQNDYSYPFTFGSGTKLEIK",0.0413 µg/mL
16,"231H4G11 (antibody, V domains shown) VH: QAYLQQSGAELVRSGASVKMSCKASGYTFTSHNIHWVKQTPGQGLEWIGYISPGNGYTNYNQKFRGKATLTADTSSSTAYMQISSLTSEDSAVYFCTRDYYGNSFAYWGQGTLVTVSA VL: DIVMTQSPSSLTEKAGERVSMSCKSSQSLFNSGSQKNYLTWYQQKPGQPPKLLIYWASTRESGVPDRFSGSGSGTDFTLTISSVQAEDLAVYYCQNNYWFPFTFGAGTKLELK",0.0394 µg/mL
17,"232C5E3 (antibody, V domains shown) VH: QAYLQQSGAELVRSGASVKMSCKASGYTFTSHNIHWIKQTPGKGLEWIGYIYPGNGGTNYNQKFKAKATLTADTSSSTAYMQISSLTSEDSAVYFCARDYYGNSFAYWGQGTLVTVSA VL: DIMMTQSPSSLTETAGEKVSMSCKSSQSLLNSGNQKNYLTWYQQKPGQPPKLLIYWASTRESGVPDRFSGSGSGTDFTLTISSVQAEDLAVYYCQNGYRFPFTFGAGTKLELK",0.0259 µg/mL
18,"232D7C8 (antibody, V domains shown) VH: QAYLQQSGAELVRSGASVKMSCKASGYTFTSHNMHWVKQTPGQGLEWIGYIYPGNGGTNYNQKFKGKATLTADTSSSTAYMQISSLTSEDSAVYFCARDYFGNSFAYWGQGTLVTVSA VL: DILMTQSPSSLTATAGEKVSMSCKSSQSLFNSGNQRNYLTWYQQRPGQPPKLLIYWASTRESGVPDRFTGSGSGTDFTLTISSVQAEDLAVYYCQNDYRYPFTFGAGTKLELK",0.0305 µg/mL
19,"232F1E4 (antibody, V domains shown) VH: QVQLKESGPGLVAPSQSLSITCTVSGFALTTYGVSWVRQPPGKGLEWLGVIWGDGSTHYHSALISRLSIRKDNSKSQVFLKLNSLQTDDTATYYCAKPGRGNAMDYWGQGTSVTVSS VL: DIVMSQSPSSLTVTAGEKVTMSCKSSQSLLNSGNQKNYLTWYQQKPGQSPKLLIYWASTRESGVPDRFTGSGSGTDFTLTISSMQAEDLAVYYCQNDYIYPLTFGAGTMLELK",0.0509 µg/mL
20,"233D5E5 (antibody, V domains shown) VH: QAYLQQSGAELVRSGASVKMSCKASGYTFTSHNMHWVKQTPRQGLEWIGYIYPGNGDTNYNQKFKGKATLTADTSSSTAYMQISSLTSEDSAVYFCTRDYYGNSFAYWGQGTLVTVSA VL: DIVMTQSPSSLTEKAGERVSMSCKSSQSLFNSGNQKNYLTWYQQKPGQPPKLLIYWASTRESGVPDRFTGSGSGTDFTLTISSVQAEDLAVYYCQNAYWYPFTFGAGTKLELK",0.0943 µg/mL
21,"234A10F7 (antibody, V domains shown) VH: QVQLQQSGAELVKPGASVKLSCKASGYTFTSFGINWLRQRPEQGLEWIGWIFPGDGNSKYNENFKGKATLTTDKSSSTAYMQLTRLTSEDSAVYFCARFYYGNSFAYWGQGTLVTVSA VL: DIVMTQSPSSLTVTTGQKVTMSCKSSQSLLNSGNQKNYLTWYQQKPGQPPKLLIYWAATRESGVPDRFTGSGSGTDFTLTISSVQAEDLAVYYCQNDYFYPFTFGAGTKLELK",0.0268 µg/mL
22,"234B9D4 (antibody, V domains shown) VH: EIQLQQSGPDLMKPGSSVKISCTASGYSFTSYYIHWVKQSHGKTLEWIGYIDPFNGGTRYNQKFEGKAALTVDKSSTTAYMHLTSLTSDDSAVYYCASLRFFTYWGQGTLVTVSA VL: DIVMTQSPSSLTVTAGEKVTMTCKSSQSLLNSGNQENYLTWYQQKPGQPPKLLISRASTRQSGVPDRFTGSGSGTDFTLTISSVQAEDLAVYYCQNDYSYPLTFGAGTKLELK",0.0405 µg/mL
